Laboratory results: article PMC10786891, “Massively parallel profiling of RNA-targeting CRISPR-Cas13d”

Target: T1, EsCas13d, nuclease-dead (Eubacterium siraeum, UniProt B0MS50, R295A;H300A;R849A;H854A)
T1 sequence: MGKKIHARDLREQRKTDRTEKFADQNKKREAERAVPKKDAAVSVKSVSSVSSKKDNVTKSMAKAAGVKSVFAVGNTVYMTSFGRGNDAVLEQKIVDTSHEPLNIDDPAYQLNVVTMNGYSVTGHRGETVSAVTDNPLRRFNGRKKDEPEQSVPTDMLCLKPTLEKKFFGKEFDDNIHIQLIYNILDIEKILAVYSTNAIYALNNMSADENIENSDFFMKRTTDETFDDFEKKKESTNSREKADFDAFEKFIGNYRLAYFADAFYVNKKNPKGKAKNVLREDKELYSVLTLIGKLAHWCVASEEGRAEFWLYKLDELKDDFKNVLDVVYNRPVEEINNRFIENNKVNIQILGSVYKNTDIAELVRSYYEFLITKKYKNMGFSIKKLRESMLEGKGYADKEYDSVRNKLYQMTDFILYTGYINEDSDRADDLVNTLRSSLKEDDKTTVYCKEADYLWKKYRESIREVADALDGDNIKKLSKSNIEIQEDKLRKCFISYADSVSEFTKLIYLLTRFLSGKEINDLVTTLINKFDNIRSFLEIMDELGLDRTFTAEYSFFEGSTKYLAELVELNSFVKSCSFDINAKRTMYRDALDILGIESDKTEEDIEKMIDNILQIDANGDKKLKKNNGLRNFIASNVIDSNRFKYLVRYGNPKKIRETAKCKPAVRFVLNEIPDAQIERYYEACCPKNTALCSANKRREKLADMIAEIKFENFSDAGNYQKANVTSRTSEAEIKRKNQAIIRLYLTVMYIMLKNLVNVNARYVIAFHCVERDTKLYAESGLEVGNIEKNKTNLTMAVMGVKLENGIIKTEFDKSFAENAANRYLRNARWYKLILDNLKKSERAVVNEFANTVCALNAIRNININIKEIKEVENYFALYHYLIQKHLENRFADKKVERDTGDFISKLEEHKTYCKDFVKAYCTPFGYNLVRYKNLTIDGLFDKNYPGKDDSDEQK
Assay: crRNA (strand 1, pre-loaded); Mg2+; 40 mM Tris-HCl pH 7.5, 150 mM NaCl, 6 mM MgCl2, 1 mM DTT, 0.1% Tween-20, 0.2 mg/ml BSA; 25 C; 10 min per concentration, then washed
Conditions: tags: His6-TwinStrep-SUMO cleaved; N-terminal SNAP kept (SNAP-Surface 488); label: 3' end held by stalled T7 RNA polymerase

B1: target 1 G5U,G17A (mixed)
RNA 1: CACCCGUGCAAAAAUGCAGGGGUCUAAAACUGAGCGGAUAACCUCUCUAUGG
RNA 2: GGGAAUGGAUCCACAUCUACGAAUUCGUACCAUAAAGAGGUUAUCCUCUCACCGAGAUCGGAAGAGCACACGU
Kd: 91 ± 15 nM

B2: target 1 insG 3' of 4,insG 3' of 1 (mixed)
RNA 1: CACCCGUGCAAAAAUGCAGGGGUCUAAAACUGAGCGGAUAACCUCUCUAUGG
RNA 2: GGGAAUGGAUCCACAUCUACGAAUUCGUACCAUAGAGAGGUUAUCCGCGUCAGCCGAGAUCGGAAGAGCACACGU
Kd: 6 ± 0.4 nM

B3: target 2 MT 5'PFS CAG 3'PFS CCG (mixed)
RNA 1: CACCCGUGCAAAAUUGCAGGGGUCUAAAACCUUCUCCAAAUUGUUUCAUCCU
RNA 2: GGGAAUGGAUCCACAUCUACGAAUUCCAGAGGAUGAAACAAUUUGGAGAAGCCGAGAUCGGAAGAGCACACGU
Kd: 11.9 ± 3 nM

B4: target 2 MT 5'PFS CUG 3'PFS CGC (mixed)
RNA 1: CACCCGUGCAAAAUUGCAGGGGUCUAAAACCUUCUCCAAAUUGUUUCAUCCU
RNA 2: GGGAAUGGAUCCACAUCUACGAAUUCCUGAGGAUGAAACAAUUUGGAGAAGCGCAGAUCGGAAGAGCACACGU
Kd: 4 ± 0.4 nM

B5: target 2 MT 5'PFS AAC 3'PFS ACG (mixed)
RNA 1: CACCCGUGCAAAAUUGCAGGGGUCUAAAACCUUCUCCAAAUUGUUUCAUCCU
RNA 2: GGGAAUGGAUCCACAUCUACGAAUUCAACAGGAUGAAACAAUUUGGAGAAGACGAGAUCGGAAGAGCACACGU
Kd: 6.1 ± 1.6 nM

B6: target 2 MT 5'PFS AAC 3'PFS UAU (mixed)
RNA 1: CACCCGUGCAAAAUUGCAGGGGUCUAAAACCUUCUCCAAAUUGUUUCAUCCU
RNA 2: GGGAAUGGAUCCACAUCUACGAAUUCAACAGGAUGAAACAAUUUGGAGAAGUAUAGAUCGGAAGAGCACACGU
Kd: 5.4 ± 0.8 nM

B7: target 2 MT 5'PFS GGU 3'PFS CGU (mixed)
RNA 1: CACCCGUGCAAAAUUGCAGGGGUCUAAAACCUUCUCCAAAUUGUUUCAUCCU
RNA 2: GGGAAUGGAUCCACAUCUACGAAUUCGGUAGGAUGAAACAAUUUGGAGAAGCGUAGAUCGGAAGAGCACACGU
Kd: 22.3 ± 2.6 nM

B8: target 2 MT 5'PFS CUA 3'PFS UAG (mixed)
RNA 1: CACCCGUGCAAAAUUGCAGGGGUCUAAAACCUUCUCCAAAUUGUUUCAUCCU
RNA 2: GGGAAUGGAUCCACAUCUACGAAUUCCUAAGGAUGAAACAAUUUGGAGAAGUAGAGAUCGGAAGAGCACACGU
Kd: 1.9 ± 0.4 nM

B9: target 2 MT 5'PFS ACA 3'PFS AAU (mixed)
RNA 1: CACCCGUGCAAAAUUGCAGGGGUCUAAAACCUUCUCCAAAUUGUUUCAUCCU
RNA 2: GGGAAUGGAUCCACAUCUACGAAUUCACAAGGAUGAAACAAUUUGGAGAAGAAUAGAUCGGAAGAGCACACGU
Kd: 5.7 ± 1.3 nM

B10: target 2 MT 5'PFS CAA 3'PFS UCC (mixed)
RNA 1: CACCCGUGCAAAAUUGCAGGGGUCUAAAACCUUCUCCAAAUUGUUUCAUCCU
RNA 2: GGGAAUGGAUCCACAUCUACGAAUUCCAAAGGAUGAAACAAUUUGGAGAAGUCCAGAUCGGAAGAGCACACGU
Kd: 7.3 ± 0.6 nM

B11: target 2 MT 5'PFS GGA 3'PFS CCG (mixed)
RNA 1: CACCCGUGCAAAAUUGCAGGGGUCUAAAACCUUCUCCAAAUUGUUUCAUCCU
RNA 2: GGGAAUGGAUCCACAUCUACGAAUUCGGAAGGAUGAAACAAUUUGGAGAAGCCGAGAUCGGAAGAGCACACGU
Kd: 12.3 ± 1.2 nM

B12: target 2 MT 5'PFS GGU 3'PFS CGG (mixed)
RNA 1: CACCCGUGCAAAAUUGCAGGGGUCUAAAACCUUCUCCAAAUUGUUUCAUCCU
RNA 2: GGGAAUGGAUCCACAUCUACGAAUUCGGUAGGAUGAAACAAUUUGGAGAAGCGGAGAUCGGAAGAGCACACGU
Kd: 15.6 ± 1.4 nM

B13: target 2 MT 5'PFS UAA 3'PFS UGU (mixed)
RNA 1: CACCCGUGCAAAAUUGCAGGGGUCUAAAACCUUCUCCAAAUUGUUUCAUCCU
RNA 2: GGGAAUGGAUCCACAUCUACGAAUUCUAAAGGAUGAAACAAUUUGGAGAAGUGUAGAUCGGAAGAGCACACGU
Kd: 9.5 ± 1.5 nM

B14: target 2 MT 5'PFS UAG 3'PFS CGC (mixed)
RNA 1: CACCCGUGCAAAAUUGCAGGGGUCUAAAACCUUCUCCAAAUUGUUUCAUCCU
RNA 2: GGGAAUGGAUCCACAUCUACGAAUUCUAGAGGAUGAAACAAUUUGGAGAAGCGCAGAUCGGAAGAGCACACGU
Kd: 2.36 ± 0.26 nM

B15: target 2 MT 5'PFS GUC 3'PFS UGA (mixed)
RNA 1: CACCCGUGCAAAAUUGCAGGGGUCUAAAACCUUCUCCAAAUUGUUUCAUCCU
RNA 2: GGGAAUGGAUCCACAUCUACGAAUUCGUCAGGAUGAAACAAUUUGGAGAAGUGAAGAUCGGAAGAGCACACGU
Kd: 17.4 ± 2.6 nM

B16: target 2 MT 5'PFS GGC 3'PFS UUA (mixed)
RNA 1: CACCCGUGCAAAAUUGCAGGGGUCUAAAACCUUCUCCAAAUUGUUUCAUCCU
RNA 2: GGGAAUGGAUCCACAUCUACGAAUUCGGCAGGAUGAAACAAUUUGGAGAAGUUAAGAUCGGAAGAGCACACGU
Kd: 15.2 ± 1.8 nM

B17: target 2 MT 5'PFS GGA 3'PFS UCU (mixed)
RNA 1: CACCCGUGCAAAAUUGCAGGGGUCUAAAACCUUCUCCAAAUUGUUUCAUCCU
RNA 2: GGGAAUGGAUCCACAUCUACGAAUUCGGAAGGAUGAAACAAUUUGGAGAAGUCUAGAUCGGAAGAGCACACGU
Kd: 22 ± 4 nM

B18: target 2 MT 5'PFS GGU 3'PFS CGA (mixed)
RNA 1: CACCCGUGCAAAAUUGCAGGGGUCUAAAACCUUCUCCAAAUUGUUUCAUCCU
RNA 2: GGGAAUGGAUCCACAUCUACGAAUUCGGUAGGAUGAAACAAUUUGGAGAAGCGAAGAUCGGAAGAGCACACGU
Kd: 15.4 ± 2.1 nM

B19: target 2 MT 5'PFS GGC 3'PFS UUC (mixed)
RNA 1: CACCCGUGCAAAAUUGCAGGGGUCUAAAACCUUCUCCAAAUUGUUUCAUCCU
RNA 2: GGGAAUGGAUCCACAUCUACGAAUUCGGCAGGAUGAAACAAUUUGGAGAAGUUCAGAUCGGAAGAGCACACGU
Kd: 18.8 ± 2.3 nM

B20: target 2 MT 5'PFS UAA 3'PFS UGC (mixed)
RNA 1: CACCCGUGCAAAAUUGCAGGGGUCUAAAACCUUCUCCAAAUUGUUUCAUCCU
RNA 2: GGGAAUGGAUCCACAUCUACGAAUUCUAAAGGAUGAAACAAUUUGGAGAAGUGCAGAUCGGAAGAGCACACGU
Kd: 5.6 ± 1.2 nM

B21: target 2 MT 5'PFS GGU 3'PFS CGC (mixed)
RNA 1: CACCCGUGCAAAAUUGCAGGGGUCUAAAACCUUCUCCAAAUUGUUUCAUCCU
RNA 2: GGGAAUGGAUCCACAUCUACGAAUUCGGUAGGAUGAAACAAUUUGGAGAAGCGCAGAUCGGAAGAGCACACGU
Kd: 15.1 ± 1.4 nM

B22: target 2 MT 5'PFS CAC 3'PFS CUU (mixed)
RNA 1: CACCCGUGCAAAAUUGCAGGGGUCUAAAACCUUCUCCAAAUUGUUUCAUCCU
RNA 2: GGGAAUGGAUCCACAUCUACGAAUUCCACAGGAUGAAACAAUUUGGAGAAGCUUAGAUCGGAAGAGCACACGU
Kd: 2.31 ± 0.3 nM

B23: target 2 MT 5'PFS GGA 3'PFS CCA (mixed)
RNA 1: CACCCGUGCAAAAUUGCAGGGGUCUAAAACCUUCUCCAAAUUGUUUCAUCCU
RNA 2: GGGAAUGGAUCCACAUCUACGAAUUCGGAAGGAUGAAACAAUUUGGAGAAGCCAAGAUCGGAAGAGCACACGU
Kd: 27 ± 5 nM

B24: target 2 MT 5'PFS CUG 3'PFS AUU (mixed)
RNA 1: CACCCGUGCAAAAUUGCAGGGGUCUAAAACCUUCUCCAAAUUGUUUCAUCCU
RNA 2: GGGAAUGGAUCCACAUCUACGAAUUCCUGAGGAUGAAACAAUUUGGAGAAGAUUAGAUCGGAAGAGCACACGU
Kd: 2.57 ± 0.22 nM
